Substrate: O=C(O)C(=O)O
Test: purified protein
Conditions: pH 3.1, 37 °C, MBTH 0.11 mM, DMAB 1.6 mM, HRP 0.1 U/ml, potassium oxalate, concentrations up to 400 uM, substrate (product) inhibition data excluded

B1: barley oxalate oxidase (OxOx) (Hordeum vulgare) (protein)
chain: SDPDPLQDFCVADLDGKAVSVNGHTCKPMSEAGDDFLFSSKLTKAGNTSTPNGSAVTELDVAEWPGTNTLGVSMNRVDFAPGGTNPPHIHPRATEIGMVMKGELLVGILGSLDSGNKLYSRVVRAGETFVIPRGLMHFQFNVGKTEAYMVVSFNSQNPGIVFVPLTLFGSDPPIPTPVLTKALRVEAGVVELLKSKFAGGS
B1 was tested, and the Km was 256 µM.

— publication PMC10174515
